This passage reports stoichiometry N results from PMC4945409.

The target of the experiment is wild-type KDPG aldolase scaffold (1wa3). Nature of the experiment: SEC.

In turn, “wild-type KDPG aldolase scaffold (1wa3) (enzyme)” registered a stoichiometry N of 3.
